What is called Kd is a measure of binding affinity in units of concentration. Read a low Kd as higher affinity.

Ends that are not written are not given here. Where only a bound is given, the exact number is not on record here.

Our source for the Kd values is article PMC2654718 (Biochemistry, 2009).

This experiment addresses MBP-VDR-LBDmt (human). In words: fluorescence polarisation.
C(Texas Red maleimide)KVSQNPILTSLLQITGNGG [DRIP205-1 peptide, Texas Red labeled] gave a Kd of over 20 µM.

C(Texas Red maleimide)AASKHKQLSELLRSGSSPN [P300 peptide, Texas Red labeled] had a Kd of over 20 µM.

C(Texas Red maleimide)QAANNSLLLHLLKSQTIPK [RIP140-5 peptide, Texas Red labeled] showed a dissociation constant (Kd) of under 20 µM.
